This test concerns the target Recombinant human active MMP-3 (ab96555, Abcam) (human) (UniProt P08254). In words: cell-based or functional assay.
Chain of UniProt P08254 (P08254 100-477 limits assumed): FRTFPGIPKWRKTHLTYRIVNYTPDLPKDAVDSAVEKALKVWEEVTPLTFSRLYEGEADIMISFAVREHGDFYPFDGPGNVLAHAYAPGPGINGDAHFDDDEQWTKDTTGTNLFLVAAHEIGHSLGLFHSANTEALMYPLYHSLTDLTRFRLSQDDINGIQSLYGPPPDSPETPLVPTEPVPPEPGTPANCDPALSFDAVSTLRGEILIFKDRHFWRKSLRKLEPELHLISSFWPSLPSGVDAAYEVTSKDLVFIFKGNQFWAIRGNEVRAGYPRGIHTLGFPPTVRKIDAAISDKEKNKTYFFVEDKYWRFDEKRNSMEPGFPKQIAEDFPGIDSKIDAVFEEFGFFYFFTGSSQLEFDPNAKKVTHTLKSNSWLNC

For “Recombinant human active TIMP-1 (ab82104, Abcam) (from UniProt P01033 24-207)”, the TEER reduction of HTM monolayers over 24 h: 10 ng/ml active MMP-3 against MMP-3 inactivated by incubation with TIMP-1 came out at 4.29 Ohm·cm^2, the TEER reduction of SCEC monolayers over 24 h: 10 ng/ml active MMP-3 against MMP-3 inactivated by incubation with TIMP-1 was determined as 5.62 Ohm·cm^2, the increase in paracellular flux (Papp) of 70 kDa FITC-dextran through HTM monolayers: active MMP-3 against TIMP-1-inactivated MMP-3 was 4e-05 ×10⁻⁶ cm/s and the increase in paracellular flux (Papp) of 70 kDa FITC-dextran through SCEC monolayers: active MMP-3 against TIMP-1-inactivated MMP-3 turned out to be 0.00014 ×10⁻⁶ cm/s.

The record behind these values is patent publication US20190358305A1.
